Target: the molecule itself
Assay: SEC-MALS

B1: human collagen VI α3(VI) N-terminal N9-N1 region (domain or fragment, UniProt P12111 237-2028, looked up)
chain: AQDSADIIFLIDGSNNTGSVNFAVILDFLVNLLEKLPIGTQQIRVGVVQFSDEPRTMFSLDTYSTKAQVLGAVKALGFAGGELANIGLALDFVVENHFTRAGGSRVEEGVPQVLVLISAGPSSDEIRYGVVALKQASVFSFGLGAQAASRAELQHIATDDNLVFTVPEFRSFGDLQEKLLPYIVGVAQRHIVLKPPTIVTQVIEVNKRDIVFLVDGSSALGLANFNAIRDFIAKVIQRLEIGQDLIQVAVAQYADTVRPEFYFNTHPTKREVITAVRKMKPLDGSALYTGSALDFVRNNLFTSSAGYRAAEGIPKLLVLITGGKSLDEISQPAQELKRSSIMAFAIGNKGADQAELEEIAFDSSLVFIPAEFRAAPLQGMLPGLLAPLRTLSGTPEVHSNKRDIIFLLDGSANVGKTNFPYVRDFVMNLVNSLDIGNDNIRVGLVQFSDTPVTEFSLNTYQTKSDILGHLRQLQLQGGSGLNTGSALSYVYANHFTEAGGSRIREHVPQLLLLLTAGQSEDSYLQAANALTRAGILTFCVGASQANKAELEQIAFNPSLVYLMDDFSSLPALPQQLIQPLTTYVSGGVEEVPLAQPESKRDILFLFDGSANLVGQFPVVRDFLYKIIDELNVKPEGTRIAVAQYSDDVKVESRFDEHQSKPEILNLVKRMKIKTGKALNLGYALDYAQRYIFVKSAGSRIEDGVLQFLVLLVAGRSSDRVDGPASNLKQSGVVPFIFQAKNADPAELEQIVLSPAFILAAESLPKIGDLHPQIVNLLKSVHNGAPAPVSGEKDVVFLLDGSEGVRSGFPLLKEFVQRVVESLDVGQDRVRVAVVQYSDRTRPEFYLNSYMNKQDVVNAVRQLTLLGGPTPNTGAALEFVLRNILVSSAGSRITEGVPQLLIVLTADRSGDDVRNPSVVVKRGGAVPIGIGIGNADITEMQTISFIPDFAVAIPTFRQLGTVQQVISERVTQLTREELSRLQPVLQPLPSPGVGGKRDVVFLIDGSQSAGPEFQYVRTLIERLVDYLDVGFDTTRVAVIQFSDDPKVEFLLNAHSSKDEVQNAVQRLRPKGGRQINVGNALEYVSRNIFKRPLGSRIEEGVPQFLVLISSGKSDDEVDDPAVELKQFGVAPFTIARNADQEELVKISLSPEYVFSVSTFRELPSLEQKLLTPITTLTSEQIQKLLASTRYPPPAVESDAADIVFLIDSSEGVRPDGFAHIRDFVSRIVRRLNIGPSKVRVGVVQFSNDVFPEFYLKTYRSQAPVLDAIRRLRLRGGSPLNTGKALEFVARNLFVKSAGSRIEDGVPQHLVLVLGGKSQDDVSRFAQVIRSSGIVSLGVGDRNIDRTELQTITNDPRLVFTVREFRELPNIEERIMNSFGPSAATPAPPGVDTPPPSRPEKKKADIVFLLDGSINFRRDSFQEVLRFVSEIVDTVYEDGDSIQVGLVQYNSDPTDEFFLKDFSTKRQIIDAINKVVYKGGRHANTKVGLEHLRVNHFVPEAGSRLDQRVPQIAFVITGGKSVEDAQDVSLALTQRGVKVFAVGVRNIDSEEVGKIASNSATAFRVGNVQELSELSEQVLETLHDAMHETLCPGVTDAAKACNLDVILGFDGSRDQNVFVAQKGFESKVDAILNRISQMHRVSCSGGRSPTVRVSVVANTPSGPVEAFDFDEYQPEMLEKFRNMRSQHPYVLTEDTLKVYLNKFRQSSPDSVKVVIHFTDGADGDLADLHRASENLRQEGVRALILVGLERVVNLERLMHLEFGRGFMYDRPLRLNLLDLDYELAEQLDNIAEKA
For B1, the “stoichiometry N” value was 2.

— article PMC3220584 (The Journal of Biological Chemistry, 2011)
